In the supplement of paper PMC12764529:
± gives the half width of the 95% confidence interval.

Legend:
[1] = folding stability dG unfold from chymotrypsin proteolysis; higher = more stable
Outline: (§1)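 Unfolding free energy was derived, per protease or combined, against a sequence-predicted unfolded-state K50 and a shared folded-state K50, starting from K50 inferred by Bayesian fitting of sequencing counts. Digestion with trypsin and chymotrypsin was carried out on designed mini-proteins under 80 residues without cysteine in a PA-tagged cDNA display construct. Only designs with AlphaFold2 dimer inter-PAE above 15 were kept.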

[2] = folding stability dG unfold from trypsin proteolysis; higher = more stable
Outline: as §1

[3] = folding stability dG unfold (combined trypsin and chymotrypsin); higher = more stable
Outline: as §1

Sequence | folding stability dG unfold [1] | folding stability dG unfold [2] | folding stability dG unfold [3]
SIIVEPLPDNTFIAYFPETDSVIEIRVDPSTGKAHAIAELPGEPVEATFDPRKGVLVIELPNGRIVLPLLSA [r9_541_TrMRF] | 1.7 ± 0.065 kcal/mol | 2.28 ± 0.051 kcal/mol | 2.01 ± 0.088 kcal/mol
SIKFPDGSEIEFEWSEDKEYEVELPNGPIVKIKKVIKEGESWIVEVEFEDGSKVILEVDPNNPEEVQKAIAS [r1_66_TrMRF] | 2.19 ± 0.072 kcal/mol | 1.77 ± 0.086 kcal/mol | 2.06 ± 0.1 kcal/mol
SKFDPDDPGQPVRFTVMIPVPEDAMKNGDLEEVRDKVEEAADMFRPHGMEVKDIEVPPEQGWVMVKFEMPSA [r9_75_TrROS] | -0.222 ± 0.43 kcal/mol | -0.824 ± 0.34 kcal/mol | -0.0605 ± 0.65 kcal/mol
SKGTFRAVLPLETLKELIERFKSKGYRIEVKPLSIKPFEVPGIREDGTPELFPVVEVEAEIEIYPPEDPASA [r9_991_TrMRF] | 1.9 ± 0.063 kcal/mol | 1.671 ± 0.015 kcal/mol | 1.82 ± 0.066 kcal/mol
SKIKIEVDEETGVITVTVEVDNLSEEEILDKLKEELEKLGFEVEVKVVKIEEVNGKVVVTVEIKIKPEKLSA [r9_347_TrROS_Hall] | 0.9 ± 0.073 kcal/mol | 1.75 ± 0.11 kcal/mol | 1.45 ± 0.093 kcal/mol
SKIKIKAKDKKTNIPIDEIDIYPLEDGSYGIKIIFTFPKEKKEITIPIPKNKKIEEFIKALGLEEIEIDASA [r9_492_TrMRF] | 2.33 ± 0.13 kcal/mol | 1 ± 0.1 kcal/mol | 1.79 ± 0.23 kcal/mol
SKIKILIAMTEDEIKKLAEELKKKGYEIKIKVKKIEKKKVKVKNKDGKTYEKEVVLVEVEIEIVPKGVKPSA [r9_991_TrROS_Hall] | 3.98 ± 0.32 kcal/mol | 2.73 ± 0.43 kcal/mol | 3.27 ± 0.73 kcal/mol
SKIKKIKRVEIFKKKEKGYVVKITVEIDGKEYEFTVPAGMSLEEALKELLKNKDVKIKSVEIKPVSKEELSA [r9_607_TrROS_Hall] | 0.734 ± 0.18 kcal/mol | 0.0722 ± 0.22 kcal/mol | 0.595 ± 0.29 kcal/mol
SKIKPGDVVTIMFPFPPGDPDQIREWAYWIARKLGPDVKVKSVEYNPNDPRYVQIEVRVPGGKITIHIMWSA [r9_1079_TrROS] | 4.25 ± 0.076 kcal/mol | 2.7 ± 0.06 kcal/mol | 3.7 ± 0.12 kcal/mol
SKIRIEWPDETQEIKIPKDASVAIDPGNGHIAIHGPDGEALGFPLGPNWKIEPDDDEIEITIPPPKPEDPSA [r9_653_TrROS] | 0.141 ± 0.056 kcal/mol | -0.118 ± 0.15 kcal/mol | 0.158 ± 0.2 kcal/mol
SKKIKLSEEMKEAIKEAVKKAKPGEKVEITIKLKDGSIIKIEIYPDGTIKISVFDKNGKKIKEFEIKIKPSA [r9_132_TrROS_Hall] | 2.59 ± 0.12 kcal/mol | 1.43 ± 0.075 kcal/mol | 1.81 ± 0.44 kcal/mol
SKKKKIKKITLTFTTSDGSTITIEIDADQTVTITLPDGSTITITFDKDTGILTITVTNKDGSKQEFKIELSA [r9_99_TrROS_Hall] | 3.08 ± 0.051 kcal/mol | 1.82 ± 0.075 kcal/mol | 2.6 ± 0.11 kcal/mol
SKKPDQPPKTVPIEIWVPLPPGQTPEWREMAEEFAEIFADELQQEGFKNVTVEVEPNKDGWVHIDAEVQVSA [r9_865_TrROS] | -0.283 ± 0.21 kcal/mol | 0.821 ± 0.15 kcal/mol | 0.322 ± 0.26 kcal/mol
SKKPDYVILIEIEVEKNENGEKTIKKKIIIYDKNGKKKLIAEEEITIEVNGIKIKIKIKIFPKGASLEELSA [r9_1113_TrROS_Hall] | 2.23 ± 0.16 kcal/mol | 3.51 ± 0.26 kcal/mol | 2.87 ± 0.2 kcal/mol
SKKPKIKIEIEIVEITEVKYDKKTNKITVKVKVKIKIEVEVNGKKKKIEIEIPKNMTLEEILKKLKELLKSA [r9_656_TrROS_Hall] | 1.99 ± 0.12 kcal/mol | 2.15 ± 0.44 kcal/mol | 2.28 ± 0.58 kcal/mol
SKKTITITIEDKETGLKVEITINEDGTITIKVYDKDGKLVAEVKAKIKLVKDKDGKIRLVIEEIEIKVKPSA [r9_434_TrROS_Hall] | 3.04 ± 0.13 kcal/mol | 3.87 ± 0.46 kcal/mol | 3.61 ± 0.44 kcal/mol
SKKTIYIVNEDGSIIRFDEETGEITIFNKETGKEVKIKVEKKGNELIITIEVNGKKYKIKIPKGDIIPIKSA [r9_239_TrROS_Hall] | 4.16 ± 0.07 kcal/mol | 2.32 ± 0.062 kcal/mol | 3.68 ± 0.24 kcal/mol
